# Data: the DeepSol protein solubility set
# Test: soluble on expression in E. coli; label from the status in PepcDB or PDB records
row,Sequence,soluble on expression in E. coli
1,MGSDKIHHHHHHMTDLKTTFAGLSLRNPIIISSSGLTNSAGKNKRLAEAGAGAIVLKSLFEEQIMLEADQLKDPAFYPEASDYLEEYIREHKLAEYLTLIKESKKECSIPIIASINCYSDSEWVDFAKQIQEAGADALEINILALQSDVQYTYGSFEQRHIDILRHIKQTVTIPVIMKLGDNLTNPVALIDQLYANGAAAVVLFNRFYQPDINIENMEQVSGEVFSTSADLATPLRWIGIASSVVNKIDYAASGGVANPEAVVKAILAGASAVEVCSAIYQNTNAFIGESTRFLSAWMERKGFKNIAQFKGKLNIKDVQGINTFERTQFLKYFGKKEA,not soluble
2,MAHHHHHHMSIAASSARKDGPHHPSSGLTGKETLQDARKMEYRASTLEAGGNDMECLQLMETALQIRCKEYGTGSSSPELLKEACDAAERVVMKCNVLGVKLFKEGKYDVATPLFGYAMEMTGEGSFPLRKDDERRRRLRGVTLNNHGCMERHRGHFSTALDYMQQSMQCTGQQSPVAFLNISAVQVQLRLCEEAAHSAVCAIQSLGPNPEDPSLLAVAHHNLAMALELIDPPRAHEEYRLALGLAQNTISRRSEVTRTIESNMQRFVMVLHECRPGNSALTGTNSPRSSCGHTLFVSPRSCSRERSPSGRDAASRTHRVDIFPHPFAVSAKETVAKRSISRPARADAGHPPKRLTSLSPMN,not soluble
3,GFVKEPFFTRLIDLESPFEEEFDKNVRYEIKRAQKESLLFSWGEGVPRFVKFFNAFAQSKGLSLLNEAELSYMGEHLRLTEIRANGEPLVMHSYLLDHSIKRVRLLHSASLFRLSQEKDFRALVGRANRLLHFLDMERFKEEGFKIYDFGGVSHSQDPALLGINRFKEGFGGRE,not soluble
4,MALLPAVRRYGRLTRATGLVLEATGLQLPLGATCIIERQDGPETKEVESEVVGFNGQRLFLMPLEEVEGILPGARVYARNGHGDGLQSGKQLPLGPALLGRVLDGGGKPLDGLPAPDTLETGALITPPFNPLQRTPIEHVLDTGVRAINALLTVGRGQRMGLFAGSGVGKSVLLGMMARYTRADVIVVGLIGERGREVKDFIENILGPDGRARSVVIAAPADVSPLLRMQGAAYATRIAEDFRDRGQHVLLIMDSLTRYAMAQREIALAIGEPPATKGYPPSVFAKLPALVERAGNGIHGGGSITAFYTVLTEGDDQQDPIADSARAILDGHIVLSRRLAEAGHYPAIDIEASISRAMTALITEQHYARVRLFKQLLSSFQRNRDLVSVGAYAKGSDPMLDKAITLWPQLEAFLQQGIFERADWEDSLQALDLIFPTV,soluble
5,DLTAIIGLEVHVQLETDTKIFCGCSTDTDDADPNTHTCPVCLGLPGALPTLNEGAVEAAVKLGKAIDADIPERTRFHRKNYFYPDLPKGFQITQYDAPICQDGELEVGTADDRRAIGIERAHLEEDPGSLQHVGGSIEDADYTLVDYNRAGTPLMEIVTRPDFRAAEEVRSFLAKLTSVLEYLGVFDAERDGSLRVDANISMVDSAELAGEGGPSDDVLEAANRTEVKNISSHRAAQKALAYETTRQRNQLER,not soluble
6,MLADPAQPEHVFIVEDSRGATELKLYKSHYTIGKADSCDIRLHSIYASRQHATLVRFLTENGEVRYRLIDGDPETSRRSANGTYVNNRSITECDLKHYDQILFGADVKATYFYLSPQFRSLEHHHHHH,not soluble
7,MGSDKIHHHHHHMSVLVVGMSHRSAPVALLEKLSMDDGVRTNTVSDLVARPSLAEAMIVSTCNRLEVYAMTSSFHTGVNDVVEVLHDMSGVDMEELRGYLYVRYADAAAEHMMEVTSGLDSMVVGEQQIIGQVRTAYHSATEAGTVGPALHGLVQASLHTGKRVHTETDIDDAGASMVSFACDEALAQMSATNFAGCRALVLGAGAMASLAATHLGRLGIEHITVANRTFERAQRLADHAVEAGVAASAIEFERRMDVLCDVDVVVSATGANTFTIEAANIPAAHGDLMMIDLSLPRDISDDVAEVPGVHLVNIEKLRDVASSGEAKDHAAQRIVAEELEAYTSAQRIRDVAPAVAALRRHASSLIDSELARLSTRVPSMDEDDFSEVQRTVRRVVDKLLHQPTVRVKELAAQSGTVSYDTAIQELFGLAVEATPVAVNVDELPERINKR,not soluble
8,MSLLRLHDGDLLFVTAARTGLSGAIDDATATQGAPSFDHVGLVAHDGRARVVLHADEEGSRQQPLADFIRQARAKQRQIFVYRLNAAQRAAIPDAIAQARRMLGKPYNLTYVQDDNSYYCSDFIERAFRAHQVFALQPMNFKNPQSGQMSAYWTEFYRSKGMDVPQGLPGTNPNDMARAPALQALGPLDEGHHHHHH,soluble
9,MHRVHGTLHASFTIECRNMFKRFFLALIGVGILLSESTQASESPPYSMVLLTENFPPFNMAVDGKNFAQENNIDGIAAEVVREMFKRANIGYSMTLRFPWDRVYKLALDKPGYGVFSTTRLPEREKLFKWIGPLGSYDWIMLARGDSPITLASLEQAKDYRIGAYKGDAIGERLNAMGLNPILMLRDRDNVKKLANGQIDLWAVGDPVGRYLAKLEGVSGFKTALRFNSAELYLAVNKSTPDEIVNRLQAALDQMRTEGWVDAVKARYQLEHHHHHH,soluble
10,MSIKEQTLMTPYLQFDRNQWAALRDSVPMTLSEDEIARLKGINEDLSLEEVAEIYLPLSRLLNFYISSNLRRQAVLEQFLGTNGQRIPYIISIAGSVAVGKSTTARVLQALLSRWPEHRRVELITTDGFLHPNQVLKERGLMKKKGFPESYDMHRLVKFVSDLKSGVPNVTAPVYSHLIYDVIPDGDKTVVQPDILILEGLNVLQSGMDYPHDPHHVFVSDFVDFSIYVDAPEDLLQTWYINRFLKFREGAFTDPDSYFHNYAKLTKEEAIKTAMTLWKEINWLNLKQNILPTRERASLILTKSANHAVEEVRLRK,soluble
11,MAHHHHHHMSLPIIRLRTVNSNHATAAYDPVTASCTLYGFLRSVPSRFECDMAMSDFKRGVQAAQGQKCLAKNNANMLNRVFSSVQDRLLRELPKIIPQLARNSSTWRRLLSGAESTSSMSSTPTATRLQDNARSLHNEESTQPSIPSTPLPSAGTGENGNKGNHKNGDHHSSAEEILVEETVSTTSTRFKSPYEQIPPPIHLTASEHKESRATGGMQGEAGERKDASTVVEHRGKGNNLPGKGYRPHPLLLAILERVRSSCSAEENESDREEREFTTIMESREKALRTKLSSAYSMIPPEEKNFKGFLREMEARVAVAQKLFEVQKFEETTIRTTECALKIEVATMRALLHQIVDAVAEAEERHEREGPRSPYYAEECHVMAAIQQALDDLAS,not soluble
12,GPLGSMKLLVVDDSSTMRRIIKNTLSRLGYEDVLEAEHGVEAWEKLDANADTKVLITDWNMPEMNGLDLVKKVRSDSRFKEIPIIMITTEGGKAEVITALKAGVNNYIVKPFTPQVLKEKLEVVLGTND,soluble
13,MSFDPLPGTLENLLEQTSLKWIFVGGKGGVGKTTTSCSLAIQMSKVRSSVLLISTDPAHNLSDAFGTKFGKDARKVPGFDNLSAMEIDPNLSIQEMTEQADQQNPNNPLSGMMQDLAFTIPGIDEALAFAEILKQIKSMEFDCVIFDTAPTGHTLRFLNFPTVLEKALGKLGGLSSRFGPMINQMGSIMGVNANEQDLFGKMESMRANISEVNKQFKNPDLTTFVCVCISEFLSLYETERMIQELTSYEIDTHNIVVNQLLLDPNTTCPQCMARRKMQQKYLAQIEELYEDFHVVKVPQVPAEVRGTEALKSFSEMLVKPYVYPTSGKE,soluble
14,MGSDKIHHHHHHMNKLRILHLNDLHSHLERFPVIERFFAEKSHEEVESLSFDLGDNVDRVHPLTEATEGQFNVELMNRLDLTAATIGNNEGLGLTHEMLSHLYDEANFPVLLSNLATNFAQSEPLIVTTSFGLRIGLIGLTAPYVLAYPQAGWELSDPFVVLDELLPKLDCDFTILLSHLGKNVDEQIAKDYDEIDLIIGAHTHHLFEHGAQVNQTLLAAAGRYGEYVGQIDLTFNENNQLVDAQIEAIATNTLPQRKSDLVETNGWELRGHKLLEGTVVADLPKALPNVLPDFKGSHYLAKIFADYGNTKLCLMNSGLLVTDELPNHLTLDDLHEFLPHSIRLVRFTFTGEELRQVLLEIMDVSDFLATQKIQGMGFRGKTFGSLIFHGIEPREGDFYIKNSENQSLEKISDEESYQIVLPDQYLFAWYFPLLKKLGKSEILFPYFLREIVAEHFKNK,not soluble
15,MLEDLSQGKGSNHEKRKMESTAQITEEDSKLDEVVGLQKQICDLGTELTRQSSWWCIAHKDLQSQIDALIKENQEIRAELKTLKKQDAEATKACIGSPTPARASNTLPVYIKIEGTDSERTTSWDERDELSGSPPNRSTMATGGTDSQDEMLSFTSVDEKVIHMSSKFLQRSLGRMSPEPLSDSTFLDTESLADIWSSNPETSDGELLLHAQASRVIPCFSPNALWVQNIPTKSRAPKEIQQTSDTTKTDETKEKQHPNGKVERMLSDGRTIITFPNGTRKEISADKKTTLIRFFNGDMKKIKSNQKVIYYYADAQTMHTTYPDGVEVVQFPNKWTEKFYPDGSKETVFPDGTVKRLKDGCEETVFPDGTFVTVKRNGDKTIMFSNGEKEIHTARFKRKEFPDGTTKTVYCNGCQETKYASGRVRVKDEKGTVILDWK,not soluble
16,MGSDKIHHHHHHMFDKQEFVSKLVTEEKAKIVLLVMDGLGDIPVNGKTPLQAANTPNLDNLAKESDLGQTIPVLPGITPGSGPGHLSLFGYDPIKYQIGRGILEALGIGVEVGEKDVVARANFATWDGKVVLDRRAGRPATEESAKVVQLLSEKIKKIEDVEITFYPGKEHRFVVKFTGEGLGDKVTDADPQKEGHPMVWAEGLDEPSKKTARIVNELIKKIAEVLKDNPKINFALIRGFSKYPDLPKFPQVYKMKAGAIATYPMYRGLAKLVGMEIIETGQTVADEIKTLKEKWNDYDFFYVHVKKTDSYGEDGKFEEKVKVIEEVDAIIPEIVSLNPDVLVITGDHSTPVPLKAHSWHPVPLLIWSKYTRRGLSQAFNEFECARGTLGTIHASDVMTLALAYAGKLEKFGA,not soluble
17,HNNLLSQLGSSHNSITYDIIFGNKDTKNYYAQFAKKHQTHLYSQISSSNQQELKYVDNDPNLKIKEEAAKSTVQNLTVYS,soluble
18,MLGIVIATHGALSDGAKDAATVIMGATENIETVNLNSGDDVQALGGQIKTAIENVQQGDGVLVMVDLLSASPYNQAVLVINELEPALQKKIFVVSGTNLPMVLEAINHQLLGTPIAEAAQAIVAQGKESVQAWDISMTSFEDEEDEDDDF,soluble
19,MAHHHHHHMQQRKTNKLFYPVAFLHFFLGEDNERRMFRRLSTSTLAAAAVRFYTPSESLKKLYTSDFDKTEFPLSIVPSDSVLFAKFLYKAAEPNNSFDAILKDFQTIAAASSSLPIFWERTAVVEDVAEFKKLSEPMFFTLVWMQKNGMLDLIPEVSEIYETYVNAKMKRIVAKIYVAPGKEGEVGEAKRVAQELHKEAKELDGYTLVFKTVVDRSIVTGFAVELAGQYVNRAEGHKSHAPAADEADYTTIPAPRLPKTVWEDNIETEVLCRYLESLAEYDAEEAKHGV,not soluble
20,MLVNKVEICGVNTSKLPVLTNEQKKELFERMHKGDTSAREEFIKGNLRLVLSVIQRFNNRGEYVDDLFQVGCIGLIKAIDNFDVTQNVKFSTYAVPMIIGEIRRYLRDNNAIRVSRSLRDIAYKALQAKEKLTNQNSKEPTIEEIAKELGLPKEEVVFALDAIQDPISLFESVYHDGGDAIYVMDQVKDEKNNDENWLEGIALSEAMRKLNDREKLILNLRFFDGRTQMEVAEEIGISQAQVSRLEKTALMHMRKYI,not soluble
21,MSEEAEAGPSPKVNGENGNGTNTFDDLYVDDKMRRMIVDLQRQWLTDYHDSREKSLVALTEKLHQEFMEDQERVRRDLLVQFKIELDQTKEELEKKHAENLKEEIEKLSEKHQRELAVAKKKQWCWQCNSEAIYHCCWNTAYCSVECQQGHWQIHRKFCRRKKSNGGAPGPVQPIAEPTQSQQ,soluble
